Target: T1, recombinant EGFRvIII/Fc protein (UniProt P00533 25-645)
T1 construct: Staining reagent for flow cytometry; not shown: Fc part not described
Assay: flow cytometry, CAR T cells stained with recombinant EGFRvIII/Fc, day 1
Procedure: Briefly, EGFRvIII-specific CAR vectors were introduced into via electroporation, using a Sleeping Beauty-based transposon system to mediate genomic integration of the transposons. On day 0, PBMC were mixed with CAR transposon and SB transposase and electroporated. The following day (day1) cells count and viability were measured followed by flow cytometry to quantify CAR expression. CAR-T cells were stimulated by co-culture with either γ-irradiated) or mitomycin C treated AaPCs. The AaPC cells used were K562 cell line expressing EGFRvIII antigen. EGFRvIII-CAR-T cells were expanded ex vivo by once weekly stimulation with the AaPCs. Cultures were maintained in media supplemented with IL-2 (and/or IL-21. EGFRvIII-specific CAR expression was measured using recombinant EGFRvIII/Fc protein staining as detected by multi-parameter flow cytometry.

| binding result | Binder |
| --- | --- |
| binds | EGFRvIII CAR (MR1-1 scFv · CD8alpha 3x hinge&TM · 4-1BB · CD3ζ) (receptor, Expressed on human T cells; also called MR1-1 CAR CD8-3×) not shown |
| binds | EGFRvIII CAR (MR1-1 scFv · CD8alpha 4x hinge&TM · 4-1BB · CD3ζ) (receptor, Expressed on human T cells; also called MR1-1 CAR CD8-4×) not shown |

Source: patent US20190111080A1 (PRECIGEN, published 2019)
